According to publication PMC9478129:

Experiments:
[1] = system: Aa-Cascade Avi-Cas6f, mSav-ATTO647N labelled;Aa1-AcrIF9 (Aggregatibacter actinomycetemcomitans;Aggregatibacter actinomycetemcomitans?); assay: single-molecule DNA curtains; conditions: with AcrIF9, mean off-target dwell time 18.6 s, EMSA: 1x TAE, 200 mM NaCl, 10% glycerol, 0.1 mg/mL BSA, 20 nM DNA, 37 C (22 C for AcrIF9 mutants), 1% agarose, footprint: same buffer, 2 mM KMnO4, AFM: …
[2] = system: Aa-Cascade Avi-Cas6f, mSav-ATTO647N labelled (Aggregatibacter actinomycetemcomitans); assay: single-molecule DNA curtains; conditions: EMSA: 1x TAE, 200 mM NaCl, 10% glycerol, 0.1 mg/mL BSA, 20 nM DNA, 37 C (22 C for AcrIF9 mutants), 1% agarose, footprint: same buffer, 2 mM KMnO4, AFM: …

Substance bacteriophage lambda DNA with target has a binding signal (% on-target events) [1] of 8 and a binding signal (% on-target events) [2] of 18.
